Test results as given in publication PMC10350043.
Where no end group is shown, it is not given here. QXL520 = dark acceptor

Experiments:
Assay in all cases: FRET or BRET
[1] = target: RyR2 in cardiac SR membranes decorated with D-32-FKBP (porcine (endogenous in porcine heart) | human)
[2] = target: RyR2 in cardiac SR membranes decorated with D-85-FKBP (porcine (endogenous in porcine heart) | human)
[3] = target: RyR2 in cardiac SR membranes decorated with D-49-FKBP (porcine (endogenous in porcine heart) | human)

B1: acceptor-labeled DPc10 (QXL520 at the N-terminus) (peptide)
peptide: QXL520-GFCPDHKAAMVLFLDRVYGIEVQDFLLHLLEVGFLP
- Kd [1]: 13.1 µM
- Kd [2]: 10.4 µM
- Kd [3]: 9.9 µM
